The record followed here is publication PMC11047111 (Proceedings of the National Academy of Sciences of the …, 2024).

The data set “SEC” concerns the molecule itself. Put plainly: SEC.
The target in data set [1] is CUL3^NTD (N-terminal domain of cullin 3, residues 1 to 381) (UniProt Q13618 1-381). Put plainly: BLI.

Positions count from the first letter of the chain named. In names and notes the source's numbering stands.

CUL3^NTD (N-terminal domain of cullin 3, residues 1 to 381), sequence (Q13618 1-381): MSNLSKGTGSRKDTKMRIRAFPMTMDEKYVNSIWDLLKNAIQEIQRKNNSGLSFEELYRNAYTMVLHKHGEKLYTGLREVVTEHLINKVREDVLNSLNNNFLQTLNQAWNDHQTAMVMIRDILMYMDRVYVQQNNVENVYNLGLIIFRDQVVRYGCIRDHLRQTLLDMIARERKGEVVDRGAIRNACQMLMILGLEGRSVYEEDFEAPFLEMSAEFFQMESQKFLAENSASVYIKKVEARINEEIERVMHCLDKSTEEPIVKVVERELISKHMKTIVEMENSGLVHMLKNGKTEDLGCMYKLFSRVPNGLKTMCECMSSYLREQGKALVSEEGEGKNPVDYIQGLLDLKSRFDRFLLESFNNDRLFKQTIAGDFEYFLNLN

B1: KCTD5 (natural protein)
chain: MAENHCELLSPARGGIGAGLGGGLCRRCSAGLGALAQRPGSVSKWVRLNVGGTYFLTTRQTLCRDPKSFLYRLCQADPDLDSDKDETGAYLIDRDPTYFGPVLNYLRHGKLVINKDLAEEGVLEEAEFYNITSLIKLVKDKIRERDSKTSQVPVKHVYRVLQCQEEELTQMVSTMSDGWKFEQLVSIGSSYNYGNEDQAEFLCVVSKELHNTPYGTASEPSEKAKILQERGSRM
Turning to B1, the “stoichiometry N” value in the data set “SEC” was 5.

B2: KCTD5 L161R (natural protein)
chain: B1 chain with L161R
For the molecule B2, the binding result in data set [1] was “binds”.

The stoichiometry N is the number of molecules, sites or subunits per partner or assembly.
